Key:
human Protein S [1] = target: T1, human Protein S (human, UniProt P07225 42-676); assay: LANCE TR-FRET competition; Eu-Protein S 10 nM, competitor tracer JBS0684 300 nM; Molecular Devices M5 reader
T1 construct: Called 'full length Protein S' / 'human full-length Protein S'; It was coated on plates (ELISA), Eu-labeled (LANCE) or immobilized on a chip (Biacore); also called PS; full length Protein S
T1 sequence: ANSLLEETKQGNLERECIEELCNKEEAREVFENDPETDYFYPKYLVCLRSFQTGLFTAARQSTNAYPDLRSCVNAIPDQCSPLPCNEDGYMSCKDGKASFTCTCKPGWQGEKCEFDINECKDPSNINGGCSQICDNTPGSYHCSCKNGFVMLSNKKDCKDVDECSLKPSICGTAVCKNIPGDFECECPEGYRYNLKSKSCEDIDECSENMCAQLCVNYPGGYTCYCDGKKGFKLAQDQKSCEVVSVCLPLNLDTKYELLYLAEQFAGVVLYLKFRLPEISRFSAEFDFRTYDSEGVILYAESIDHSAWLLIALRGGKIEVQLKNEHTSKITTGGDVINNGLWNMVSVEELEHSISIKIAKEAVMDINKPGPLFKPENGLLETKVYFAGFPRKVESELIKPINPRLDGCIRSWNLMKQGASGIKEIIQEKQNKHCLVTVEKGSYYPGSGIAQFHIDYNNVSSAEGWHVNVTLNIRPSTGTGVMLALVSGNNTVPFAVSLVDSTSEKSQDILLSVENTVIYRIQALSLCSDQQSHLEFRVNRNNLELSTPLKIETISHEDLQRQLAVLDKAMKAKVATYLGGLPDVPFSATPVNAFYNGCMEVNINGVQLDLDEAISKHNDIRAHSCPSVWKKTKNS
Description: Peptides also were characterized in a competition, homogenous europium-based TR-FRET assay (LANCE IC50 assay) using JBS0684 as a tracer (i.e., competitor for Protein S binding). The following reagents were mixed together in a Perkin-Elmer ProxiPlate MTP well (indicated concentration is the final concentration): Eu-labeled Protein S (10 nM), Ulight™-labeled Streptavidin (100 nM), tracer (JBS0684 (300 nM)), and peptide (titrated in three-fold dilution steps). The final volume was 50 μl/well. The reaction mix was incubated for 1 hour at room temperature, then the fluorescence emission at 665 nm was recorded on a multi-mode reader (SpectraMax® M5, Molecular Devices) using the following instrument settings: Ex 340 nm, Em 665 nm, delay 50 μsec, integration 100 μsec, reads 100. Binding of tracer peptides to soluble europium-labeled Protein S was detected by Streptavidin labeled with an acceptor fluorophor (ULight™). Inhibition of tracer-binding to Protein S by a non-biotinylated peptide results in a decrease of TR-FRET between the Eu-labeled Protein S and ULight™-labeled Streptavidin. IC50 values were obtained from peptide titration curves at constant tracer concentration using non-linear regression of the fluorescence emission signals at 665 nm.

human Protein S [2] = target: T1, human Protein S; assay: competition ELISA IC50
Description: The competition (IC50) ELISA was performed using biotinylated tracer peptide JBS0684 to compete for Protein S-binding with candidate peptides. Peptides that compete with the tracer bind the same region of Protein S as the tracer (and each other). Ninety-six well PolySorp plates (Nunc) were coated with 3 μg/mL Protein S in coating buffer (15 mM Na₂CO₃, 35 mM NaHCO₃, pH 9.6) over night. […] Plates were then washed three times with HNaT. JBS0684 was applied at a concentration corresponding to the EC90 value determined in the binding ELISA. A competitor stock solution of peptide (10 mM) was diluted 1/33.3 in HNaT without HSA, and a serial 1/3 dilution was prepared with HNaT with 3% DMSO. The dilution was further diluted with the biotinylated tracer peptide in a ratio of […] (20 μl competitor dilution and 100 μl tracer peptide). The mixture of competitor and tracer peptide was applied to the Protein S-coated microtiter plate and incubated for 1.5 hours. The plates were washed three times with HNaT. Peptide-Protein S binding was detected by applying HRP-conjugated streptavidin to the microtiter plate, incubating the mixture for one hour, washing the plate three times with HNaT, applying TMB (3,3′5,5′-Tetramethylbenzidin), and detecting the subsequent chromogenic conversion of TMB by HRP. IC50 measurements of peptides are provided herein (see, e.g., Table 3). […]

human Protein S [3] = target: T1, human Protein S; assay: cell-based or functional assay
human Protein S [4] = target: T1, human Protein S; assay: LANCE TR-FRET competition; Protein S 2 nM, competitor tracer JBS0684 60 nM; Tecan F500 reader
Description: Peptides also were characterized in a competition, homogenous europium-based TR-FRET assay (LANCE IC50 assay) using JBS0684 as a tracer (i.e., competitor for Protein S binding). […] The final volume was 50 μl/well. […] Binding of tracer peptides to soluble europium-labeled Protein S was detected by Streptavidin labeled with an acceptor fluorophor (ULight™). Inhibition of tracer-binding to Protein S by a non-biotinylated peptide results in a decrease of TR-FRET between the Eu-labeled Protein S and ULight™-labeled Streptavidin. IC50 values were obtained from peptide titration curves at constant tracer concentration using non-linear regression of the fluorescence emission signals at 665 nm.

human Protein S [5] = target: T1, human Protein S; assay: cell-based or functional assay; remark: listed apart in the source

- IC50 (human Protein S [1]): 49 nM
- fold increase in affinity compared to JBS2512 (human Protein S [2]): 1.6 fold
- CAT EC50 (human Protein S [3]): 14 nM
- IC50 (human Protein S [4]): ~10 nM
- fold increase of activity in the CAT-assay compared to JBS2512 (human Protein S [5]): 1.6 fold
Binder: Ac-TGLVSAGWYDYNFDHYREFT-NH2 (also called parent peptide JBS2572) [JBS2572]
